Changes are numbered by the printed parent chain.
Tests used:
Conditions in all cases: both partners purified
His10-BRIL = target: T1, His10-BRIL (Escherichia coli (engineered cytochrome …, stabilised)); experiment: SPR; His10-BRIL immobilised on a nitrilotriacetic acid sensor chip via the N-terminal His10 tag; 2-fold dilution series of sABs at 30 μl/min; 20 °C; BIACORE 3000; 1:1 interaction model
T1 construct: BRIL, an engineered variant of apocytochrome b562; Immobilised by its N-terminal His10 tag for SPR; also called wt BRIL; source: E. coli BL21 (DE3), purified (Ni-NTA); not shown: His10, N-terminal, kept

[1] = target: T2, BRIL-AARAAA-KcsA (construct 5) (Escherichia coli (engineered cytochrome …, chimera)); experiment: SEC; analytical SEC (aSEC): BRIL-fused targets (in detergent, nanodiscs or amphipols) mixed with 1.2–1.5-fold molar excess of sAB, 30 min on ice; Superdex 200 Increase or Superose 6 Increase; retention volume and gel electrophoresis
T2 construct: BRIL, an engineered variant of apocytochrome b562, in place of the N-terminal helix of KcsA; helical linker; potassium channel KcsA; the N-terminal helix (residues 1-23) replaced by BRIL and linker; also called six residues (-AARAAA-) linker construct; source: E. coli BL21(DE3)plysS, purified (Talon, SEC) in DDM

[2] = target: T3, BRIL-AARAAAA-KcsA (construct 6) (Escherichia coli (engineered cytochrome …, chimera)); experiment: as above
T3 construct: BRIL, an engineered variant of apocytochrome b562, in place of the N-terminal helix of KcsA; helical linker; potassium channel KcsA; the N-terminal helix (residues 1-23) replaced by BRIL and linker; also called seven residues (-AARAAAA-) linker construct; source: E. coli BL21(DE3)plysS, purified (Talon, SEC) in DDM

[3] = target: T4, BRIL-3turn-KcsA (construct 8) (Escherichia coli (engineered cytochrome …, chimera)); experiment: as above
T4 construct: BRIL, an engineered variant of apocytochrome b562, in place of the N-terminal helix of KcsA; helical linker, 3 turn; potassium channel KcsA; the N-terminal helix (residues 1-23) replaced by BRIL and linker; source: E. coli BL21(DE3)plysS, purified (Talon, SEC) in DDM

[4] = target: T5, BRIL-AAAAA-KcsA (construct 4) (Escherichia coli (engineered cytochrome …, chimera)); experiment: as above
T5 construct: BRIL, an engineered variant of apocytochrome b562, in place of the N-terminal helix of KcsA; helical linker; potassium channel KcsA; the N-terminal helix (residues 1-23) replaced by BRIL and linker; also called five residues (-AAAAA-) linker construct; source: E. coli BL21(DE3)plysS, purified (Talon, SEC) in DDM

[5] = target: T6, BRIL-AAA-KcsA (construct 2) (Escherichia coli (engineered cytochrome …, chimera)); experiment: as above
T6 construct: BRIL, an engineered variant of apocytochrome b562, in place of the N-terminal helix of KcsA; helical linker; potassium channel KcsA; the N-terminal helix (residues 1-23) replaced by BRIL and linker; also called three residues (-AAA-) linker construct; source: E. coli BL21(DE3)plysS, purified (Talon, SEC) in DDM

[6] = target: T7, BRIL-2turn-KcsA (construct 7) (Escherichia coli (engineered cytochrome …, chimera)); experiment: as above
T7 construct: BRIL, an engineered variant of apocytochrome b562, in place of the N-terminal helix of KcsA; helical linker, 2 turn; potassium channel KcsA; the N-terminal helix (residues 1-23) replaced by BRIL and linker; also called construct with 2-turn linker; source: E. coli BL21(DE3)plysS, purified (Talon, SEC) in DDM

[7] = target: T8, BRIL-AAAA-KcsA (construct 3, 1 turn) (Escherichia coli (engineered cytochrome …, chimera)); experiment: as above
T8 construct: BRIL, an engineered variant of apocytochrome b562, in place of the N-terminal helix of KcsA; helical linker, 1 turn; potassium channel KcsA; the N-terminal helix (residues 1-23) replaced by BRIL and linker; also called four residues or 1 turn (-AAAA-) linker construct; source: E. coli BL21(DE3)plysS, purified (Talon, SEC) in DDM

B1: sAB24 (Fab, V domains shown)
VH: EVQLVESGGGLVQPGGSLRLSCAASGFNFSSSSIHWVRQAPGKGLEWVAYISSSSGSTSYADSVKGRFTISADTSKNTAYLQMNSLRAEDTAVYYCARWGYWPGEPWWKAFDYWGQGTLVTVSS
VL: DIQMTQSPSSLSASVGDRVTITCRASQSVSSAVAWYQQKPGKAPKLLIYSASSLYSGVPSRFSGSRSGTDFTLTISSLQPEDFATYYCQQYLYYSLVTFGQGTKVEIK
notes: as the heavy chain of m3 (BAG2), with CDR-H1 32-37 FSSSSI in place of VVDFSL; as the light chain of m3 (BAG2); Parent of BAG2; also called wt sAB24; wt sAB; source: E. coli BL21(gold), purified
- Kd (His10-BRIL): ~23 nM

B2: sAB BAG2 (Fab, V domains shown)
VH: B1 VH with F29V, S30V, S31D, S32F, I34L
VL: B1 VL
notes: Fab heavy chain; CDR-H1 residues 32-37 are VVDFSL; Fab light chain; humanized Fab scaffold of phage library E; source: E. coli BL21(gold), purified
- Kd (His10-BRIL): ~0.3 nM
- stoichiometry N [1]: 4
- stoichiometry N [2]: 4
- stoichiometry N [3]: 4
- stoichiometry N [4]: 4
- stoichiometry N [5]: 4
- stoichiometry N [6]: 4
- stoichiometry N [7]: 4

B3: BAG2 S36A (Fab, V domains shown)
VH: B1 VH with F29V, S30V, S31D, S32F, S33A, I34L
VL: B1 VL
notes: as the heavy chain of m3 (BAG2) with the stated change in CDR-H1; as the light chain of m3 (BAG2)
- Kd (His10-BRIL): 5.3 nM

B4: BAG2 F35A (Fab, V domains shown)
VH: B1 VH with F29V, S30V, S31D, S32A, I34L
VL: B1 VL
notes: as for B3
- Kd (His10-BRIL): 7.6 nM

Source: paper PMC7101349, “Synthetic antibodies against BRIL as universal fiducial marks for single−particle cryoEM structure determination of membrane proteins” (Nature Communications, 2020)
